Oligonucleotides are written 5' to 3', each unit as a sugar letter and its base; * is a phosphorothioate linkage, no mark a phosphodiester; rarer units and linkages stand in square brackets, end groups in braces. Plain capitals give the bases only. r = 2'-OH (RNA); f = 2'-fluoro
Tests used:
chymase (recombinant) [1] = target: T1, chymase (recombinant) (UniProt P23946 P23946:22-247); assay: inhibition; SPR ++; details: tags: SIGMA, expressed in yeast
T1 sequence: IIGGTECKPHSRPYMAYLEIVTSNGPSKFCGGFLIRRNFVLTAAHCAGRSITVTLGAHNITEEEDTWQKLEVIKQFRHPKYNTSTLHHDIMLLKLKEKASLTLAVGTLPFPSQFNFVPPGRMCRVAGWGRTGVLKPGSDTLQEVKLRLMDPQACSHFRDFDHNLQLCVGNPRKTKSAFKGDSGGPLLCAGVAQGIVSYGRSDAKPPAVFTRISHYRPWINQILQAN
Protocol: (§1) Here, Suc is a protecting succinyl group, and MCA is a 4-methylcoumaryl-7-amide group; upon cleavage of the C-terminal side of phenylalanine, AMC (7-amino-4-methyl-coumarine) is released. By detecting the fluorescence of this AMC, the enzyme activity of chymase can be determined. The assay was performed using a 96-well plate (F16 Black Maxisorp Fluoronunc, manufactured by Nunc), with a reaction mixture volume of 100 μL, in solution C as a buffer solution. First, each nucleic acid was serially diluted to 0.0027-2 μM concentrations in solution C to obtain 50 μL solutions. After 10 μL of the 1 mM substrate prepared in solution C was added thereto, the plate was set to the microplate reader SpectraMax190 (manufactured by Molecular Devices Corporation), and incubated at 37° C. for 5 minutes. Separately, 0.05 μg (or 0.005 μg) of chymase (recombinant, manufactured by SIGMA) was diluted in solution C to obtain a 40 μL chymase solution, and incubated at 37° C. for 5 minutes. The chymase solution was added to the mixture of the nucleic acid and substrate to initiate an enzyme reaction. The final chymase concentration in the reaction mixture was 16.7 nM (or 1.67 nM), the final substrate concentration being 100 μM. The plate containing the reaction mixture was set to the microplate reader SpectraMax190 (manufactured by Molecular Devices Corporation), and examined for time-dependent changes in the fluorescence intensity at 37° C. for 5 minutes (or 30 minutes) (excitation wavelength 380 nm, detection wavelength 460 nm). A linear approximation of the increase in the fluorescence of the AMC released from the substrate by chymase activity was generated, and its slope was taken as the initial velocity […]. For control, samples were treated and analyzed in the same manner in two cases: use of a 30N or 40N (a nucleotide of 30 or 40 consecutive bases represented by N; N is A, G, C or T) nucleic acid pool (negative control), and use of chymostatin, a known chymotrypsin-like serine protease inhibitor (positive control). Taking the initial reaction velocity without the nucleic acid and inhibitor (V_0) as a 100% enzyme activity, the inhibitory rate of each test substance was calculated using the following equation: […]
Chymase inhibitory activity was determined in the same manner as Example 3.

chymase (recombinant) [2] = target: T1, chymase (recombinant); assay: inhibition; SPR +; details: tags: SIGMA, expressed in yeast
Protocol: as §1

chymase [3] = target: T2, chymase (Homo sapiens, UniProt P23946); assay: Surface plasmon resonance (Biacore T100), aptamer immobilized on SA chip, chymase injected as analyte; format: binding; details: Table 1; about 1000 RU nucleic acid immobilized, chymase 0.2 μM analyte, running buffer solution A; compared with 40N
T2 sequence (P23946 22-247): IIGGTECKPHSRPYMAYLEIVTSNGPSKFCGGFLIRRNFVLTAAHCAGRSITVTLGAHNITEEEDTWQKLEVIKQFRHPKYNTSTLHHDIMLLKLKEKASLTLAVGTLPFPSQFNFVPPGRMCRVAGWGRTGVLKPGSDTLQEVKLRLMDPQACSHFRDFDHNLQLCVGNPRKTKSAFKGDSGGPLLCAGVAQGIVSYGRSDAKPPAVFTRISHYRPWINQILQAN
Protocol: Binding strength is measured using Biacore T100 (manufactured by GE Healthcare). In a method of measurement, the aptamer is first immobilized onto a sensor chip, the amount immobilized being about 1000 RU. 20 μL of a chymase solution for analyte, prepared at 0.2 μM, is injected, and the binding of chymase to the aptamer is detected. An RNA comprising a random nucleotide sequence of 30 or 40 nucleotides is used as a negative control.
(§2) The binding activities against chymase of the nucleic acids shown by SEQ ID NO: 4-20 and 22-34 were determined by the surface plasmon resonance method using Biacore T100 (manufactured by GE Healthcare). The sensor chip used was the SA chip, which had streptavidin immobilized thereon. Bound thereto was about 1500 RU of a 16-nucleotide Poly dT with biotin bound to the 5′ end thereof. […] 20 μL of chymase for analyte, prepared at 0.2 μM, was injected. Solution A was used as a running buffer.
The binding activities against chymase of the nucleic acids shown by SEQ ID NO: 38-48 were evaluated by the surface plasmon resonance method. In the evaluations for SEQ ID NO: 38-48, measurements were taken in the same manner as Example 1. Solution C was used as a running buffer.

chymase (recombinant) [4] = target: T1, chymase (recombinant); assay: inhibition; SPR ++; details: tags: SIGMA, expressed in yeast; remark: listed apart in the source
Protocol: as §1, with “By” for “Here, Suc is a protecting succinyl group, and MCA is a 4-methylcoumaryl-7-amide group; upon cleavage of the C-terminal side of phenylalanine, AMC (7-amino-4-methyl-coumarine) is released. By”
All nucleic acids of SEQ ID NO: 58-68 were prepared by chemical synthesis. Whether these nucleic acids are bound to chymase was assessed by surface plasmon resonance method in the same manner as in Example 4. The inhibitory activity on chymase was measured in the same manner as in Example 3.

chymase [5] = target: T3, chymase (Homo sapiens, UniProt P23946 P23946:22-247); assay: SPR; stronger than 40N; solution A; details: tags: human skin mast cell, Calbiochem
T3 sequence: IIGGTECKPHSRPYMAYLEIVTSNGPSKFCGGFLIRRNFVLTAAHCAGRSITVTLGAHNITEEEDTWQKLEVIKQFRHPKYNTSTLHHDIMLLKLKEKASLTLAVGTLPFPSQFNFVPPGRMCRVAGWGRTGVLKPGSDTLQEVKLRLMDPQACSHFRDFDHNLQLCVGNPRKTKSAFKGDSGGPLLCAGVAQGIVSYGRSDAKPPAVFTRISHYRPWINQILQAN
Protocol: as §2, with “5'” for “5′”

## UAACUAUGGUUAGAUAGAGUUAAAAACCAUAGAAGA (ssRNA, 2'-F pyrimidines) [SEQ 54]
Chymase (recombinant) [1]
  IC50: 51 nM

B1: SEQ 22 (ssRNA)
RNA: GGGACGGUAGGAAUUCCCGACACAAAAUGUGUGAUUAAUUCCGAACAACAAAGUAACAUAGAAGAGCGGCCGC
modifications: 2'-F pyrimidines
Chymase (recombinant) [2]
  IC50: 105 nM

B2: SEQ 33 (ssRNA)
RNA: GGGACGGUAGGAAUUCCUGUCUUUUCCCACGCAACAAAUUACAGAGCUUUGCAAAACAUAGAAGAGCGGCCGC
modifications: 2'-F pyrimidines
Chymase (recombinant) [2]
  IC50: 145 nM

B3: SEQ 28 (ssRNA)
RNA: GGGACGGUAGGAAUUCAAUUUCUUUCUAUUCUCACCUGAGUAUAUCAGGCACAGUACAUAGAAGAGCGGCCGC
modifications: 2'-F pyrimidines
Chymase (recombinant) [2]
  IC50: 45 nM

B4: GGGACGGUAGGAAUUCUGCCGCAACCCAAUGAAAACGAAGAUAGAGAUAAAUCGAACAUAGAAGAGCGGCCGC (nucleic acid)
chain: rGrGrGrAfCrGrGfUrArGrGrArAfUfUfCfUrGfCfCrGfCrArAfCfCfCrArAfUrGrArArArAfCrGrArArGrAfUrArGrArGrAfUrArArAfUfCrGrArAfCrAfUrArGrArArGrArGfCrGrGfCfCrGfC
modifications: aptamer
Chymase [3]
  Binding activity as determined using Biacore: equivalent binding activity compared with 40N

## GGUUCUACAGAUAGAGAUAAAGUAGAACC (ssRNA, 2'-F pyrimidines) [SEQ 49]
Chymase (recombinant) [1]
  IC50: 117 nM

## GGGUUAGAUAGAUUUAAAAACCC (ssRNA, 2'-F pyrimidines) [SEQ 61]
Chymase (recombinant) [4]
  IC50: 23 nM

B5: SEQ 7 (ssRNA)
RNA: GGGACGGUAGGAAUUCACCUUUCCAAUUGUGAAAGAAACACAAAAAGAAAUGACAUCAUAGAAGAGCGGCCGC
modifications: 2'-F U and C
Chymase [5]
  binding result: binds

B6: SEQ 16 (ssRNA)
RNA: GGGACGGUAGGAAUUCCCAUGACUGAAAAACGUCAGUAAAAUCCGAAAAUCAUAUCAUAGAAGAGCGGCCGC
modifications: 2'-F U and C
Chymase [5]
  binding result: binds

## CUAUGGUUAGAUAGAGUUAAAAACCAUAG (ssRNA, 2'-F pyrimidines) [SEQ 55]
Chymase (recombinant) [1]
  IC50: 55 nM

B7: SEQ 34 (ssRNA)
RNA: GGGACGGUAGGAAUUCUGCCGCAACCCAAUGAAAACGAAGAUAGAGAUAAAUCGAACAUAGAAGAGCGGCCGC
modifications: 2'-F pyrimidines
Chymase (recombinant) [2]
  IC50: 137 nM

B8: SEQ 27 (ssRNA)
RNA: GGGACGGUAGGAAUUCCGUCAUCGGUUGCAAAUUGAAAAUACAAAACAAGGACAACCAUAGAAGAGCGGCCGC
modifications: 2'-F U and C
Chymase [5]
  binding result: binds

B9: SEQ 31 (ssRNA)
RNA: GGGACGGUAGGAAUUCGUCCCUCAUGUCUAUUUUGCAGAUAGACUUAAAGCAAACAUAGAAGAGCGGCCGC
modifications: 2'-F pyrimidines
Chymase (recombinant) [2]
  IC50: 155 nM

## GGGUUGGAUAGAGUUAAGAACCC (ssRNA, 2'-F pyrimidines) [SEQ 62]
Chymase (recombinant) [4]
  IC50: 29 nM

## GGGUUAGAUAGAGCUAAAAACCC (ssRNA, 2'-F pyrimidines) [SEQ 60]
Chymase (recombinant) [4]
  IC50: 26 nM

## GGGUAACUAUGGUUAGAUAGAGUUAAAAACCAUAGAAGACCC (ssRNA, 2'-F pyrimidines) [SEQ 53]
Chymase (recombinant) [1]
  IC50: 66 nM

B10: SEQ 32 (ssRNA)
RNA: GGGACGGUAGGAAUUCGUCCUCAUGUCUAUUUUGCAGAUAGACUUAAAGCAAACAUAGAAGAGCGGCCGC
modifications: 2'-F pyrimidines
Chymase (recombinant) [2]
  IC50: 235 nM

## GGCAUUCUACAGAUAGAGAUAAAGUAGAAUUUAAC (ssRNA, 2'-F pyrimidines) [SEQ 50]
Chymase (recombinant) [1]
  IC50: 138 nM

## GUCACAGAUAGAGUUAAAGUGAC (ssRNA, 2'-F pyrimidines) [SEQ 64]
Chymase (recombinant) [4]
  IC50: 20 nM

## GCAUUUGAGAUAGAUUUAAACAAACGC (ssRNA, 2'-F pyrimidines) [SEQ 57]
Chymase (recombinant) [1]
  IC50: 99 nM

## GGGUUAGAUAGAGAUAAAAACCC (ssRNA, 2'-F pyrimidines) [SEQ 59]
Chymase (recombinant) [4]
  IC50: 38 nM

## CGUUACAUAAUGUAUAUACCAGGGUAACUAAACAUAGAAGAGCGG (ssRNA, 2'-F pyrimidines) [SEQ 51]
Chymase (recombinant) [1]
  IC50: 24 nM

## GGCAGAUAGAGUUAAAGCC (ssRNA, 2'-F pyrimidines) [SEQ 65]
Chymase (recombinant) [4]
  IC50: 56 nM

B11: SEQ 20 (ssRNA)
RNA: GGGACGGUAGGAAUUCAAAAUCAGCUGAUUUGUAAUUUUUUUACACAGGCAAAACACAUAGAAGAGCGGCCGC
modifications: 2'-F pyrimidines
Chymase (recombinant) [2]
  IC50: 282 nM

## GCUACAGAUAGAGUUAAAGUAGC (ssRNA, 2'-F pyrimidines) [SEQ 63]
Chymase (recombinant) [4]
  IC50: 23 nM

B12: SEQ 29 (ssRNA)
RNA: GGGACGGUAGGAAUUCACGACCGCCCAAAAAAUGGUGACAUUUUAGAAACACCGAACAUAGAAGAGCGGCCGC
modifications: 2'-F U and C
Chymase [5]
  binding result: binds

From patent US9012420B2, “Aptamer for chymase, and use thereof” (Ribomic Inc., priority 2009, dated 2015)
